Series [1] addresses T1, Recombinant Human FGFR2 alpha (IIIc) Fc Chimera Protein (Homo sapiens, UniProt P21802).
T1 construct: Fc (chimera); purchased R&D systems 712-FR-050
Description: SPR binding affinity of chemically synthesized cyclic peptide to immobilized FGFR. The following applies: SPR binding amount at 10 nmol/L cyclic peptide, 25° C., per one molecule of FGFR; chemically synthesized product. Here is the method: The binding affinity of the cyclic peptide to FGFR was evaluated using a surface plasmon resonance (SPR) method.
A CM5 sensor chip (Cytiva, 29149603) was set in Biacore-T200 (manufactured by Cytiva) which is a surface plasmon resonance device, and an HBS-EP buffer (Cytiva, BR100826) was added as a running buffer at a flow rate of 10 μL/min to equilibrate the flow channel. Next, 70 μL of a mixed aqueous solution of 0.2 mol/L 1-(3-dimethylaminopropyl)-3-ethylcarbodiimide (EDC) and 0.05 mol/L N-hydroxysuccinimide (NHS) was added to activate the sensor chip. Then, Recombinant Human FGFR2 alpha (IIIc) Fc Chimera Protein CF (R&D systems, 712-FR-050) prepared at 50 nmol/L in an Acetate 4.5 buffer (Cytiva, BR100350) was added thereto to perform immobilization at about 5000 RU. Thereafter, the blocking treatment was performed with an ethanolamine solution. In addition, in another flow channel of the same sensor chip, blocking treatment was performed immediately after activation without immobilizing FGFR.
A cyclic peptide diluted to 10 nmol/L using HBS-EP was added to each flow channel of the FGFR-immobilized sensor chip produced above at 25° C. for 10 minutes, then HBS-EP was allowed to flow as a running buffer for 30 minutes, and the binding of the cyclic peptide to FGFR was measured. Thereafter, a regeneration treatment of removing the bound cyclic peptide was performed by repeating the flow of a regeneration liquid in which sodium chloride powder was dissolved in Glysine 1.5 (Cytiva, BR100354) to a final concentration of 0.15 mol/L for 1 minute in each flow channel twice. The binding amount of the cyclic peptide was evaluated from the difference between the measured value of Biacore-T200 in the flow channel in which FGFR was immobilized and the measured value of Biacore-T200 in the flow channel in which FGFR was not immobilated, in a case where a 10 nmol/L cyclic peptide was allowed to flow.
The binding amount of the cyclic peptide evaluated above was normalized to the binding amount of the cyclic peptide molecules per one molecule of FGFR using the molecular weights of the cyclic peptide and FGFR, and the binding affinity to FGFR was evaluated according to the following evaluation criteria. The evaluation result preferably satisfies the evaluation criteria A, B, or C.
(In general: Surface plasmon resonance follows binding to a sensor surface in real time, without labels.)

Series [2] is described as follows: Molecular stability after reducing agent (DTT) treatment, LC. The class given is physicochemical. The following applies: residual rate after DTT aqueous solution, room temperature, 1 hour. The procedure: The molecular stability of the cyclic peptide was evaluated by analyzing an aqueous solution of the cyclic peptide treated with a reducing agent by liquid chromatography (LC).
The reducing agent treatment was performed under the following conditions based on the concentration of glutathione contained in the cells. 25 μL of a 0.2 mg/mL cyclic peptide aqueous solution was prepared, 58.8 μL of a 12.6 mmol/L DTT aqueous solution was added to the aqueous solution, and the mixture was incubated at room temperature for 1 hour to obtain an aqueous solution of the cyclic peptide treated with a reducing agent. The DTT aqueous solution was used by diluting a 1 mol/L (+−)-dithiothreitol (DTT) solution (FUJIFILM Wako Pure Chemical Corporation, 044-33871) with water. The total area of all the peaks in LC/MS of the cyclic peptide before the reducing agent treatment was set to 100%, and the proportion of the total area of all the peaks in LC/MS of the aqueous solution of the cyclic peptide treated with the reducing agent was determined to calculate the residual rate of the cyclic peptide, and the molecular stability was evaluated according to the following evaluation criteria. The evaluation result preferably satisfies the evaluation criteria A, B, or C.
The LC used for the evaluation of molecular stability was set to the following conditions. • LC device: Prominence series (pump, column oven, autosampler, detector) (manufactured by Shimadzu Corporation) • Detector: photodiode array detector (SPD-M20A), measurement wavelength of 280 nm • Column: TSKgel ODS-100V, inner diameter of 4.6 mm×length of 150 mm, particle diameter of 5 μm (manufactured by Tosoh Corporation) • Eluent A: solution containing 0.1% trifluoroacetic acid as solute, and solvent is 100% water • Eluent B: solution containing 0.1% trifluoroacetic acid as solute, and solvent is 100% acetonitrile • Flow rate: 1.0 mL/min • Injection amount: 25 μL • Gradient: 20% to 50%: Eluent B (0 to 15 minutes), 100%: Eluent B (15 minutes) • Column temperature: 40° C.

Numbered stars: 1 amine (or outer) side, 2 acyl side, 3 side chain; on linkers, the order of the positions; unused ones are H or OH. Bridge positions count the residues as written; N and C are the ends. Square brackets hold non-standard residues; d marks the D form. Ends that are not written are not given here. acetyl = acetyl (haloacetyl before ring closure) on the side-chain amine, O=C(C[*:1])[*:2]; COCH2 = acetyl group that carries the bridge; hCys = N[C@@H](CCS)C(=O)O

T1 sequence (P21802 with tags, fused parts or gaps limits assumed): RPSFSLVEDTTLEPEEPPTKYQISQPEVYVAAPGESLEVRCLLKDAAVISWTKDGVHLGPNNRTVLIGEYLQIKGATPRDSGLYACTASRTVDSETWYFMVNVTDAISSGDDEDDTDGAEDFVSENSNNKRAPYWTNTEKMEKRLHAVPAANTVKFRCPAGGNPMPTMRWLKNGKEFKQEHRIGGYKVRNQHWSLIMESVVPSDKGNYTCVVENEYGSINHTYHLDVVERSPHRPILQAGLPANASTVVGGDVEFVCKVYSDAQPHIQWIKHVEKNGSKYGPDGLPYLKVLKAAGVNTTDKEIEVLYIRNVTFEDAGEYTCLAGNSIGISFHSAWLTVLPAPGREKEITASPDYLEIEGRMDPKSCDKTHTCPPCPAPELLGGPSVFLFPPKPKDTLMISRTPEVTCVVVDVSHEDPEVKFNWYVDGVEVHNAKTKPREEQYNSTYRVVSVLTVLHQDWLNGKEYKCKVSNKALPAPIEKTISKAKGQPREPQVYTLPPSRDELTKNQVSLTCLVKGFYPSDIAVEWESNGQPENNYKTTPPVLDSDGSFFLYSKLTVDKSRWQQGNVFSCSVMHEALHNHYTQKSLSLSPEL

Turning to “440 (QXPQNFINPVQWRYFQHYXNKKK; not fully specified; Description of Artificial Sequence: Cyclic peptide) [compound 440]”, the “Evaluation result of binding affinity to FGFR” value (“Evaluation result … to FGFR” for short) in series [1] was “A (The binding amount is 0.7 molecules of the cyclic peptide/one molecule of FGFR or more.)”. The “Evaluation result of reductive stability” value in series [2] was “A (The residual rate of cyclic peptide is 90% or more.)”.

Take “439 (QXPQNFINPVQWRYFQHYXNKKK; not fully specified; Description of Artificial Sequence: Cyclic peptide) [compound 439]”: in series [1], the “Evaluation result … to FGFR” value is “A (The binding amount is 0.7 molecules of the cyclic peptide/one molecule of FGFR or more.)”. For the same substance, the “Evaluation result of reductive stability” value in series [2] is “A (The residual rate of cyclic peptide is 90% or more.)”.

“444 (YXEENYLDPEQYQYFIYFXYKKK; not fully specified; Description of Artificial Sequence: Cyclic peptide) [compound 444]”: in series [1], the “Evaluation result … to FGFR” value is “B (The binding amount is 0.5 molecules of the cyclic peptide/one molecule of FGFR or more and less than 0.7 molecules of cyclic peptide/one molecule of FGFR.)”. The “Evaluation result of reductive stability” value in series [2] was “A (The residual rate of cyclic peptide is 90% or more.)”.

Take “437 (QK(COCH2)PQNFINPVQWRYFQHY[hCys]NKKK; thioether 2-19 via acetyl) [compound 437]”: the “Evaluation result … to FGFR” value in series [1] is reported as “A (The binding amount is 0.7 molecules of the cyclic peptide/one molecule of FGFR or more.)”. In series [2], the “Evaluation result of reductive stability” value was “A (The residual rate of cyclic peptide is 90% or more.)”.

“446 (YKEENYLDPEQYQYFIYFXYKKK; Description of Artificial Sequence: Cyclic peptide) [compound 446]”: the “Evaluation result … to FGFR” value in series [1] is listed as “A (The binding amount is 0.7 molecules of the cyclic peptide/one molecule of FGFR or more.)”. For the same substance, the “Evaluation result of reductive stability” value in series [2] was “A (The residual rate of cyclic peptide is 90% or more.)”.

As for “438 (QK(COCH2)PQNFINPVQWRYFQHY[hCys]NKKK; thioether 2-19 via acetyl) [compound 438]”, the “Evaluation result … to FGFR” value in series [1] is on record as “A (The binding amount is 0.7 molecules of the cyclic peptide/one molecule of FGFR or more.)”. Besides, the “Evaluation result of reductive stability” value in series [2] is given as “A (The residual rate of cyclic peptide is 90% or more.)”.

“452 (YXHENYLDPEQYQYFHYFKYKKK; Description of Artificial Sequence: Cyclic peptide) [compound 452]”: in series [1], the “Evaluation result … to FGFR” value is on record as “A (The binding amount is 0.7 molecules of the cyclic peptide/one molecule of FGFR or more.)”. Besides, the “Evaluation result of reductive stability” value in series [2] was “A (The residual rate of cyclic peptide is 90% or more.)”.

Regarding “451 (YCEENYLDPEQYQYFIYFCYKKK; disulfide 2-19) [compound 451]”, the “Evaluation result … to FGFR” value in series [1] was “D (The binding amount is less than 0.1 molecules of the cyclic peptide/one molecule of FGFR.)”. Further, the “Evaluation result of reductive stability” value in series [2] is reported as “D (The residual rate of the cyclic peptide is less than 50%)”.
